B1: XPA23 heavy chain D106G (Fab, V domains shown)
VH: EVQLLESGGGLVQPGGSLRLSCAASGFTFSKYFMFWVRQAPGKGLEWVSVISPSGGMTRYADSVKGRFTISRDNSKNTLYLQMNSLRAEDTAVYYCARVGYGGNSGYWGQGTLVTVSS
VL: DIQMTQSPSSVSASVGDRLTIICRASQDINRWLAWYQQTPGNAPKLLIHSATSLQSGVPSRFSGSGSGTDFTLTINSLQPEDFATYYCQQADSFPLTFGGGTKVEIK
notes: Fab, periplasmic extract; also called C5A D106G
B2: XPA23 heavy chain F33A (Fab, V domains shown)
VH: EVQLLESGGGLVQPGGSLRLSCAASGFTFSKYAMFWVRQAPGKGLEWVSVISPSGGMTRYADSVKGRFTISRDNSKNTLYLQMNSLRAEDTAVYYCARVGYGGNSDYWGQGTLVTVSS
VL: DIQMTQSPSSVSASVGDRLTIICRASQDINRWLAWYQQTPGNAPKLLIHSATSLQSGVPSRFSGSGSGTDFTLTINSLQPEDFATYYCQQADSFPLTFGGGTKVEIK
notes: Fab, periplasmic extract; also called C5A F33A
B3: XPA23 light chain W32G (Fab, V domains shown)
VH: EVQLLESGGGLVQPGGSLRLSCAASGFTFSKYFMFWVRQAPGKGLEWVSVISPSGGMTRYADSVKGRFTISRDNSKNTLYLQMNSLRAEDTAVYYCARVGYGGNSDYWGQGTLVTVSS
VL: DIQMTQSPSSVSASVGDRLTIICRASQDINRGLAWYQQTPGNAPKLLIHSATSLQSGVPSRFSGSGSGTDFTLTINSLQPEDFATYYCQQADSFPLTFGGGTKVEIK
B4: XPA23 light chain W32H (Fab, V domains shown)
VH: EVQLLESGGGLVQPGGSLRLSCAASGFTFSKYFMFWVRQAPGKGLEWVSVISPSGGMTRYADSVKGRFTISRDNSKNTLYLQMNSLRAEDTAVYYCARVGYGGNSDYWGQGTLVTVSS
VL: DIQMTQSPSSVSASVGDRLTIICRASQDINRHLAWYQQTPGNAPKLLIHSATSLQSGVPSRFSGSGSGTDFTLTINSLQPEDFATYYCQQADSFPLTFGGGTKVEIK
B5: XPA23 light chain W32I (Fab, V domains shown)
VH: EVQLLESGGGLVQPGGSLRLSCAASGFTFSKYFMFWVRQAPGKGLEWVSVISPSGGMTRYADSVKGRFTISRDNSKNTLYLQMNSLRAEDTAVYYCARVGYGGNSDYWGQGTLVTVSS
VL: DIQMTQSPSSVSASVGDRLTIICRASQDINRILAWYQQTPGNAPKLLIHSATSLQSGVPSRFSGSGSGTDFTLTINSLQPEDFATYYCQQADSFPLTFGGGTKVEIK
B6: XPA23 light chain W32K (Fab, V domains shown)
VH: EVQLLESGGGLVQPGGSLRLSCAASGFTFSKYFMFWVRQAPGKGLEWVSVISPSGGMTRYADSVKGRFTISRDNSKNTLYLQMNSLRAEDTAVYYCARVGYGGNSDYWGQGTLVTVSS
VL: DIQMTQSPSSVSASVGDRLTIICRASQDINRKLAWYQQTPGNAPKLLIHSATSLQSGVPSRFSGSGSGTDFTLTINSLQPEDFATYYCQQADSFPLTFGGGTKVEIK
B7: XPA23 light chain W32L (Fab, V domains shown)
VH: EVQLLESGGGLVQPGGSLRLSCAASGFTFSKYFMFWVRQAPGKGLEWVSVISPSGGMTRYADSVKGRFTISRDNSKNTLYLQMNSLRAEDTAVYYCARVGYGGNSDYWGQGTLVTVSS
VL: DIQMTQSPSSVSASVGDRLTIICRASQDINRLLAWYQQTPGNAPKLLIHSATSLQSGVPSRFSGSGSGTDFTLTINSLQPEDFATYYCQQADSFPLTFGGGTKVEIK
B8: XPA23 light chain W32N (Fab, V domains shown)
VH: EVQLLESGGGLVQPGGSLRLSCAASGFTFSKYFMFWVRQAPGKGLEWVSVISPSGGMTRYADSVKGRFTISRDNSKNTLYLQMNSLRAEDTAVYYCARVGYGGNSDYWGQGTLVTVSS
VL: DIQMTQSPSSVSASVGDRLTIICRASQDINRNLAWYQQTPGNAPKLLIHSATSLQSGVPSRFSGSGSGTDFTLTINSLQPEDFATYYCQQADSFPLTFGGGTKVEIK
B9: XPA23 light chain W32P (Fab, V domains shown)
VH: EVQLLESGGGLVQPGGSLRLSCAASGFTFSKYFMFWVRQAPGKGLEWVSVISPSGGMTRYADSVKGRFTISRDNSKNTLYLQMNSLRAEDTAVYYCARVGYGGNSDYWGQGTLVTVSS
VL: DIQMTQSPSSVSASVGDRLTIICRASQDINRPLAWYQQTPGNAPKLLIHSATSLQSGVPSRFSGSGSGTDFTLTINSLQPEDFATYYCQQADSFPLTFGGGTKVEIK
B10: XPA23 light chain W32Q (Fab, V domains shown)
VH: EVQLLESGGGLVQPGGSLRLSCAASGFTFSKYFMFWVRQAPGKGLEWVSVISPSGGMTRYADSVKGRFTISRDNSKNTLYLQMNSLRAEDTAVYYCARVGYGGNSDYWGQGTLVTVSS
VL: DIQMTQSPSSVSASVGDRLTIICRASQDINRQLAWYQQTPGNAPKLLIHSATSLQSGVPSRFSGSGSGTDFTLTINSLQPEDFATYYCQQADSFPLTFGGGTKVEIK
B11: XPA23 light chain W32R (Fab, V domains shown)
VH: EVQLLESGGGLVQPGGSLRLSCAASGFTFSKYFMFWVRQAPGKGLEWVSVISPSGGMTRYADSVKGRFTISRDNSKNTLYLQMNSLRAEDTAVYYCARVGYGGNSDYWGQGTLVTVSS
VL: DIQMTQSPSSVSASVGDRLTIICRASQDINRRLAWYQQTPGNAPKLLIHSATSLQSGVPSRFSGSGSGTDFTLTINSLQPEDFATYYCQQADSFPLTFGGGTKVEIK
B12: XPA23 light chain W32S (Fab, V domains shown)
VH: EVQLLESGGGLVQPGGSLRLSCAASGFTFSKYFMFWVRQAPGKGLEWVSVISPSGGMTRYADSVKGRFTISRDNSKNTLYLQMNSLRAEDTAVYYCARVGYGGNSDYWGQGTLVTVSS
VL: DIQMTQSPSSVSASVGDRLTIICRASQDINRSLAWYQQTPGNAPKLLIHSATSLQSGVPSRFSGSGSGTDFTLTINSLQPEDFATYYCQQADSFPLTFGGGTKVEIK
B13: XPA23 light chain W32T (Fab, V domains shown)
VH: EVQLLESGGGLVQPGGSLRLSCAASGFTFSKYFMFWVRQAPGKGLEWVSVISPSGGMTRYADSVKGRFTISRDNSKNTLYLQMNSLRAEDTAVYYCARVGYGGNSDYWGQGTLVTVSS
VL: DIQMTQSPSSVSASVGDRLTIICRASQDINRTLAWYQQTPGNAPKLLIHSATSLQSGVPSRFSGSGSGTDFTLTINSLQPEDFATYYCQQADSFPLTFGGGTKVEIK
B14: XPA23 light chain W32V (Fab, V domains shown)
VH: EVQLLESGGGLVQPGGSLRLSCAASGFTFSKYFMFWVRQAPGKGLEWVSVISPSGGMTRYADSVKGRFTISRDNSKNTLYLQMNSLRAEDTAVYYCARVGYGGNSDYWGQGTLVTVSS
VL: DIQMTQSPSSVSASVGDRLTIICRASQDINRVLAWYQQTPGNAPKLLIHSATSLQSGVPSRFSGSGSGTDFTLTINSLQPEDFATYYCQQADSFPLTFGGGTKVEIK
B15: XPA23 light chain W32Y (Fab, V domains shown)
VH: EVQLLESGGGLVQPGGSLRLSCAASGFTFSKYFMFWVRQAPGKGLEWVSVISPSGGMTRYADSVKGRFTISRDNSKNTLYLQMNSLRAEDTAVYYCARVGYGGNSDYWGQGTLVTVSS
VL: DIQMTQSPSSVSASVGDRLTIICRASQDINRYLAWYQQTPGNAPKLLIHSATSLQSGVPSRFSGSGSGTDFTLTINSLQPEDFATYYCQQADSFPLTFGGGTKVEIK

Key:
[1] = biological target: T1, IL-1β (UniProt P01584 117-269); assay: Biacore, Fab periplasmic extract
T1 construct: Antigen of XPA23

[2] = biological target: T2, IL-1β (UniProt P01584 117-269); assay: Biacore, periplasmic extract
T2 construct: Antigen immobilised on the Biacore chip

| Binder | fold difference in affinity against the original [1] | binding result [2] |
| --- | --- | --- |
| B1 | 0.03 fold |  |
| B2 | 0.75 fold |  |
| B3 |  | no binding |
| B4 |  | no binding |
| B5 |  | no binding |
| B6 |  | no binding |
| B7 |  | no binding |
| B8 |  | no binding |
| B9 |  | no binding |
| B10 |  | no binding |
| B11 |  | no binding |
| B12 |  | no binding |
| B13 |  | no binding |
| B14 |  | no binding |
| B15 |  | no binding |
